Data on 2 substances can be found in patent US20170218072A1.

In experiment [1] the target is HER2ex. (UniProt P04626). Kind of experiment: SPR (Biacore X100); single cycle method, 0.05% Tween20-PBS, immobilized full-Ab.
Experiment [2] addresses HER2ex. (UniProt P04626). Description: SPR (Biacore X100); multi-cycle method, 0.05% Tween20-PBS. Conditions: scFv. In general terms: In SPR one partner is held on a chip, and binding of the other changes the refractive index at the surface.
In experiment [3] the target is HER2ex. (UniProt P04626). Kind of experiment: SPR (Biacore X100); multi-cycle method, 0.005% Tween20-PBS. The note with it: scFv.

One may read the Kd as the equilibrium constant for the complex coming apart. High values mean lower affinity, low ones higher affinity.

Take Trastuzumab full-body Ab: the Kd in experiment [1] came out at 3.56 nM.

For the substance Trastuzumab scFv, the Kd in experiment [2] turned out to be 0.0947 nM; in experiment [3] it was 0.256 nM.
